Here are results for three molecules from US20190367620A1.

For test [1], the target named is human FGFR1 (His-tagged FGFR1b-IIIb or FGFR1b-IIIc; isoform not told at that place) (human) (UniProt P11362). Put plainly: ELISA on coated human FGFR1b (IIIb or IIIc not told). (In general: ELISA stands for enzyme-linked immunosorbent assay.)
The target is the same in test [2]. The test is described as follows: ELISA on coated human FGFR1b (IIIb or IIIc not told), IgG1 format.
A further test concerns the target huFGFR1a-IIIc (human) (UniProt P11362). The test is described as follows: SPR (Biacore 4000), antibody captured, His-tagged FGFR1 injected; no unit in the table, nM inferred from paragraph 90. (Surface plasmon resonance follows binding to a sensor surface in real time, without labels.)
The target in test [3] is T1, FGFR1 D2 point mutant K63A (human), P11362.
T1 chain: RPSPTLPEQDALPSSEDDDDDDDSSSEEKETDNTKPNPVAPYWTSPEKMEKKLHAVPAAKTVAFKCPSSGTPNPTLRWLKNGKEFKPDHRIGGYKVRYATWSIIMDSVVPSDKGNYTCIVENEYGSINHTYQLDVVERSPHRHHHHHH
The test is described as follows: SPR as in Example 1.8. Particulars: remark: other sources report otherwise.

Test [4] concerns the target T2, FGFR1 D2 point mutant K95A (human), P11362.
T2 chain: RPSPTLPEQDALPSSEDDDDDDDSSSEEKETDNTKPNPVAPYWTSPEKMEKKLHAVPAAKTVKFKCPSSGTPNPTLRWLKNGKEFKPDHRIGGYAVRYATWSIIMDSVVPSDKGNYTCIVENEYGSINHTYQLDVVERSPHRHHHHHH
The test is described as follows: SPR as in Example 1.8. Particulars: remark: other sources report otherwise.

For test [5], the target named is T3, FGFR1 D2 point mutant T61A (human), P11362.
T3 chain: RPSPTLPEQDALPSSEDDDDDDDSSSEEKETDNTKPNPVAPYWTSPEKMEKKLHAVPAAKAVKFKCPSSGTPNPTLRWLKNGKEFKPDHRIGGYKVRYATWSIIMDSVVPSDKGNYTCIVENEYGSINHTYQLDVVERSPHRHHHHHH
The test is described as follows: SPR as in Example 1.8. Particulars: remark: other sources report otherwise.

The target in test [6] is T4, FGFR1 D2 point mutant K60A (human), P11362.
T4 chain: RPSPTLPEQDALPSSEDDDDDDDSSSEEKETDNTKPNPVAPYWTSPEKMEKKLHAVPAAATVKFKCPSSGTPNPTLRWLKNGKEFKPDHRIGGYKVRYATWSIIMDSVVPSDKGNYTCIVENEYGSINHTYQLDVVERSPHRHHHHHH
The test is described as follows: SPR as in Example 1.8. To be noted: remark: other sources report otherwise.

Test [7] deals with T1, FGFR1 D2 point mutant K63A (human), …. The test is described as follows: SPR; free energy change relative to wild-type D2. To be noted: remark: other sources report otherwise.
Test [8] concerns the target T2, FGFR1 D2 point mutant K95A (human), …. Put plainly: SPR; free energy change relative to wild-type D2. Particulars: remark: other sources report otherwise.
Test [9] concerns the target T3, FGFR1 D2 point mutant T61A (human), …. Put plainly: SPR; free energy change relative to wild-type D2. Particulars: remark: other sources report otherwise.
The target in test [10] is T4, FGFR1 D2 point mutant K60A (human), …. Put plainly: SPR; free energy change relative to wild-type D2. Particulars: remark: other sources report otherwise.

huFGFR1a-IIIc (human), sequence (P11362 22-376): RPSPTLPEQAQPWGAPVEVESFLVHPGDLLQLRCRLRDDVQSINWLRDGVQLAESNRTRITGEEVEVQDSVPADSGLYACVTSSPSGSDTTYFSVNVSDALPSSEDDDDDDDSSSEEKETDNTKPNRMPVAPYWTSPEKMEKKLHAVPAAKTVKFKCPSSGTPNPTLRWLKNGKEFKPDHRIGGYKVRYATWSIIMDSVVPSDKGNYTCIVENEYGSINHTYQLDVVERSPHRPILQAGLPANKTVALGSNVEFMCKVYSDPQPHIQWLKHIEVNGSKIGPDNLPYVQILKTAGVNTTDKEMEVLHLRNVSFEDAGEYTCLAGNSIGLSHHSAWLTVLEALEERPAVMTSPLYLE

B1: mAb #D01 IgG1 (antibody, V domains shown)
VH: QVQLQESGPGLVKPSGTLSLTCAVSGGSISSNNWWSWVRQPPGKGLEWIGEIYHSGSTSYNPSLKSRVTISVDKSKNQFSLKLSSVTAADTAVYYCARATDWFDHWGQGTLVTVSS
VL: SYVLTQPPSVSVAPGQTARITCGGNNIGSESVHWYQQKPGQAPVLVVYDDSDRPSGIPERFSGSNSGNTATLTISRVEAGDEADYYCQVWDSTSDHRVFGGGTKLTVLG
Usually EC50 stands for the concentration giving half of the maximal effect. Higher therefore signals lower potency in that assay. For B1, the EC50 in [1] stood at 0.015 nM. In other words, the picomolar range.

B2: #A08 IgG1 (standard IgG1 built from the #A08 lead heavy and light chains) (antibody, V domains shown)
VH: EVQLQESGPGLVKPSGTLSLTCAVSGGSISSNNWWSWVRQPPGKGLEWIGEIYHSGSTSYNPSLKSRVTISVDKSKNQFSLKLSSVTAADTAVYYCARGTDWFDPWGQGTLVTVSS
VL: SYVLTQPPSVSVAPGQTARITCGGNNIGSESVHWYQQKPGQAPVLVVYDDSDRPSGIPERFSGSNSGNTATLTISRVEAGDEADYYCQVWDSTSDHRVFGGGTKLTVLG
Consider B2, for which the concentration giving a half-maximal response (EC50) in test [2] stood at 8 pM.

B3: mAb #A08 (antibody, V domains shown)
VH: EVQLQESGPGLVKPSGTLSLTCAVSGGSISSNNWWSWVRQPPGKGLEWIGEIYHSGSTSYNPSLKSRVTISVDKSKNQFSLKLNSVTAADTAVYYCARGTDWFDPWGQGTLVTVSS
VL: QAVLTQPPSVSVAPGQTARITCGGNNIGSESVHWYQQKPGQAPVLVVYDDSDRPSGIPERFSGSNSGNTATLTISRVEAGDEADYYCQVWDSTSDHRVFGGGTKLTVL
A word on the Kd: it is the concentration at which binding is half-saturated. On to B3, for which the Kd in the test with huFGFR1a-IIIc (human) is 0.7 nM; in [3], 13.9 nM; in test [4], 5.86 nM; in test [5] it was 5.89 nM; in test [6], 13.4 nM. Further, the ΔΔGmut in [7] is 2.53 kcal/mol; in test [8], 2.02 kcal/mol; in test [9] it was 2.02 kcal/mol; in test [10], 2.51 kcal/mol.
